The text below walks through data of paper PMC3229571, “ZipA Binds to FtsZ with High Affinity and Enhances the Stability of FtsZ Protofilaments” (PLoS ONE, 2011).

The data set concerns the molecule itself. The data set is described as follows: co-sedimentation; FtsZ 6 µM, 50 mM PIPES pH 6.0, 6.8 or 8.0, 1 mM MgCl2, 1 mM GTP, 10 min at 37°C; polymers sedimented at 88,760 x g, 30°C, 30 min; SDS-PAGE of pellets.

B1: FtsZ (natural protein, E. coli, UniProt P0A9A6 1-383, looked up)
chain: MFEPMELTNDAVIKVIGVGGGGGNAVEHMVRERIEGVEFFAVNTDAQALRKTAVGQTIQIGSGITKGLGAGANPEVGRNAADEDRDALRAALEGADMVFIAAGMGGGTGTGAAPVVAEVAKDLGILTVAVVTKPFNFEGKKRMAFAEQGITELSKHVDSLITIPNDKLLKVLGRGISLLDAFGAANDVLKGAVQGIAELITRPGLMNVDFADVRTVMSEMGYAMMGSGVASGEDRAEEAAEMAISSPLLEDIDLSGARGVLVNITAGFDLRLDEFETVGNTIRAFASDNATVVIGTSLDPDMNDELRVTVVATGIGMDKRPEITLVTNKQVQQPVMDRYQQHGMAPLTQEQKPVAKVVNDNAPQTAKEPDYLDIPAFLRKQAD
notes: Cell division protein FtsZ, E. coli; no tag is named; also called recombinant E. coli FtsZ; source: E. coli BL21, purified (ammonium sulfate precipitation, desalting, polymerization and depolymerization step)
With B1, the binding result is given as “binds”.
